{
  "source": "patent US9074002B2",
  "about": "“PTP1B inhibitors” (Cold Spring Harbor Laboratory, priority 2009, dated 2015)",
  "molecular_target": "T1, endogenous PTP1B under reducing conditions (Homo sapiens, UniProt P18031)",
  "T1 construct": "endogenous in cells; host or cells: 293T cells (transfected only with the scFv intrabody)",
  "T1 sequence (P18031 1-435)": "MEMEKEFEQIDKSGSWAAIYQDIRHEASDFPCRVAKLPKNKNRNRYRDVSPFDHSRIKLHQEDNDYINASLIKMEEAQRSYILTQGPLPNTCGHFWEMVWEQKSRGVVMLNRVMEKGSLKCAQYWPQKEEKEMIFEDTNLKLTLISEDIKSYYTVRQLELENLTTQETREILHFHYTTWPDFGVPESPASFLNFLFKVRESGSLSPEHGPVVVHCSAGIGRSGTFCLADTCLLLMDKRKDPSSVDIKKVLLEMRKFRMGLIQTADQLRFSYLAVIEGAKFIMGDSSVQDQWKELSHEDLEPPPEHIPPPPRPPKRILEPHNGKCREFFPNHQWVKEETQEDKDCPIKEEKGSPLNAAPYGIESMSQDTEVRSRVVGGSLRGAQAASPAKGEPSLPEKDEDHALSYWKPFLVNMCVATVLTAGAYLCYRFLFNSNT",
  "test": "Intrabody interaction in 293T cells under reducing condition (NAC, TCEP) (Ni-NTA pull down / immunoprecipitation)",
  "assay_type": "cell-based",
  "settings": "20 mM NAC, lysis buffer with 2 mM TCEP, FIGS. 11, 12",
  "protocol": "One of the positive candidate scFvs (scFv45) was cloned in pcDNA3.2/V5-GW/D-TOPO expression vector and transiently expressed in mammalian cells as stable intracellular antibody (aka intrabody) (FIG. 10). To detect PTP1B-OX and scFv45 interaction in mammalian cells, scFv45 was overexpressed in 293T cells as described herein (See Example 4) and 48 hours post transfection the cells were serum-starved for 16 hours in growth medium (DMEM, low glucose) without serum (FBS), then incubated with 1 mM H2O2 (in growth medium without serum) for 5 minutes at 37° C. or treated with 20 mM NAC (in growth medium without serum) for 1 hour at 37° C. Cells treated with H2O2 were washed twice with cold (4° C.) PBS and lysed in lysis buffer (25 mM HEPES, pH 7.4, 150 mM NaCl, 0.25% Deoxychloate, 1% TritonX-100, 25 mM NaF, 10 mM MgCl2, 1 mM EDTA, 10% Glycerol, 0.5 mM PMSF, 10 mM Benzamidine, protease inhibitor cocktail). Cells treated with NAC were lysed with lysis buffer containing 2 mM TCEP to ensure a post-lysis reducing environment. Interaction between PTP1B and intrabody45 were tested by pulling down the protein complex from 1 mg of total cell lysate with Ni-NTA agarose or by immunoprecipitating PTP with anti-PTP1B (FG6). For the pull down experiment, Ni-NTA agarose beads were incubated with the lysates (both oxidized and reduced) at 4° C. Protein complex bound to the Ni-NTA agarose beads was pulled down and washed three times; first with lysis buffer containing 20 mM imidazole followed by two more washes with wash buffer (PBS, pH 7.4, 20 mM imidazole, 0.05% BSA, 0.05% Tween-20 and protease inhibitors). Applicant used 20 mM imidazole in the wash buffer to reduce the non-specific binding of proteins with the Ni-NTA agarose beads. The complex was eluted with wash buffer containing 500 mM imidazole with gentle shaking at 4° C. and the eluate was mixed with SDS sample buffer with DTT. For the immunoprecipitation experiments, 1 mg of total cell lystates (both oxidized and reduced) was incubated with anti-PTP1B antibody (FG6) at 4° C. The interacting protein complex was immunoprecipitated after incubating the lysate-antibody mixture with protein A/G Sepharose at 4° C. After immunoprecipitation, Sepharose beads were washed three times; first with lysis buffer followed by two more washes with wash buffer (PBS, pH 7.4, 0.05% BSA, 0.05% Tween-20 and protease inhibitors). The Sepharose beads were then heated at 90° C. in 2×SDS sample buffer with DTT. Proteins from the pulled down or immunoprecipitated complex were separated by SDS-PAGE. PTP was detected with anti-PTP1B antibody (FG6) and the intrabodies were detected with anti-HA (3F10)-HRP antibody [anti-HA (3F10)-HRP, Roche] by immunoblotting.\nIn the initial in vitro phosphatase screening assay using reversibly oxidized (with H2O2) recombinant PTP1B, Applicant found four different PTP1B-OX specific scFvs (scFv45, scFv57, scFv64 and scFv106) from the initial pool of 12 different scFvs. […] Applicant has also shown that scFv45, expressed as an intrabody in mammalian cells, can bind to endogenous PTP1B-OX but not endogenous PTP under reducing conditions. Further assessment was carried out to identify additional PTP1B-OX-specific intrabodies. Additional scFvs have been subcloned in pcDNA3.2/V5-GW/D-TOPO mammalian expression vector (FIG. 10) from their respective phagemid constructs. […]",
  "note": "Entries after “also recorded” stand apart in the source; their conditions may differ.",
  "data": [
    {"molecule": "scFv45: conformation-sensor scFv binding PTP1B-OX, SEQ ID NO: 26 and 78; expressed as intrabody (protein) scFv: MKKTAIAIAVALAGFATVAQAALTQPSSVSANPGGTVKITCSGSSSAYGYGWYQQKSPGSAPVTVIYNNNKRPSNIPSRFSGSKSGSTGTLTITGVQAEDEAVYFCGSEDSSTDAIFGAGTTLTVLGQSSRSSTVTLDESGGGLQAPGGALSLVCKASGFTFSSYDMGWIRQAPGKGLEYVAGITDNGRYASYGSAVDGRATISRDNGQSSVRLQLNNLRAEDTGTYYCARDDGSGWTGNSIDAWGHGTEVIVSSTSGQAGQHHHHHHGAYPYDVPDYAS", "values": [
      {"measurement": "binding of intrabody to endogenous PTP1B under reducing conditions", "result": "not in the cells that were under reducing condition; also recorded: not in the presence of NAC and TCEP"}
    ]}
  ]
}
